Results: the supplement of paper PMC7125110
± gives the standard error. This sample holds only a part of the variants without activity.

B1: glmS ribozyme (parent)
chain: AUAAAAGCGCCAGAACUACAGAAAUGUAGUUGACGAGGAGGAGGUUUAUCGAAUUUUCGGCGGAUGCCUCCAAA

How the values were obtained:
Conditions in all cases: with glucosamine-6-phosphate
[1] = variants of: B1; test: self-cleavage kobs at 40 uM GlcN6P; higher = faster cleavage; RNA array
Method in brief: (§1)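 The measurements used barcoded ribozyme variants on sequenced MiSeq chips, transcribed in situ by E. coli RNA polymerase and tracked at 37 °C with a hybridised Cy3 probe. Glucosamine-6-phosphate, 40 μM to 10 mM in HEPES/KCl/Mg(OAc)2 buffer, was flowed in while tiles were imaged over ~14 h. Baseline-normalised signals, also normalised to non-cleaving reference variants, gave per-tile medians that were fit to one- or two-exponential decays for kobs. kcat and KM resulted from weighted Michaelis–Menten fits across concentrations.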

[2] = variants of: B1; test: self-cleavage kobs at 160 uM GlcN6P; higher = faster cleavage; RNA array
Method in brief: as §1

[3] = variants of: B1; test: self-cleavage kobs at 640 uM GlcN6P; higher = faster cleavage; RNA array
Method in brief: as §1

[4] = variants of: B1; test: self-cleavage kobs at 10000 uM GlcN6P; higher = faster cleavage; RNA array
Method in brief: as §1

[5] = variants of: B1; test: self-cleavage kobs at 2500 uM GlcN6P; higher = faster cleavage; RNA array
Method in brief: as §1

Variant | self-cleavage kobs at 40 uM GlcN6P [1] [s⁻¹] | self-cleavage kobs at 160 uM GlcN6P [2] [s⁻¹] | self-cleavage kobs at 640 uM GlcN6P [3] [s⁻¹] | self-cleavage kobs at 10000 uM GlcN6P [4] [s⁻¹] | self-cleavage kobs at 2500 uM GlcN6P [5] [s⁻¹]
C68U C70U C71U | < 1e-05 |  |  |  | 
A42C A53U | < 1e-05 | < 1e-05 | < 1e-05 |  | 
A33G C50U C67A | < 1e-05 |  |  |  | 
G35U G38A | < 1e-05 | < 1e-05 |  | < 1e-05 | 
C34G A53G U56G C67U | < 1e-05 |  |  |  | 
C34A U56C | < 1e-05 |  | < 1e-05 | < 1e-05 | < 1e-05
G63A A64C | < 1e-05 | < 1e-05 | < 1e-05 |  | < 1e-05
U31A U56A | 0.000218 ± 3.2e-05 |  | 0.00221 ± 0.00061 | 0.00967 ± 0.0011 | 0.00123 ± 0.0005
G9C C10U G44A U54A C71G | < 1e-05 |  |  |  | 
A15C A36G | < 1e-05 | < 1e-05 | < 1e-05 | < 1e-05 | < 1e-05
A12U G32U A53G | < 1e-05 |  |  | 0.000231 ± 6.4e-05 | 0.000144 ± 3.6e-05
A53G C67A C70U | 0.000161 ± 2.5e-05 |  |  | 0.00035 ± 9e-05 | 
C10U U54A C70A | < 1e-05 |  |  |  | 
G9U A12U C70U | < 1e-05 |  |  |  | 
U49A C50G C68G | 9.07e-05 ± 3.4e-05 |  |  |  | 
G35A U47A G51U | < 1e-05 |  |  |  | 
G41C C58A | < 1e-05 | < 1e-05 |  | < 1e-05 | 
G40U A48G G59U | < 1e-05 | < 1e-05 |  | < 1e-05 | < 1e-05
G35C G60A | < 1e-05 |  | < 1e-05 | < 1e-05 | 
C10A G32A U47A | < 1e-05 |  |  |  | 
C10U A14G A15G G43A U45G A52G A64G | < 1e-05 | < 1e-05 |  | < 1e-05 | 
U46G U49C | < 1e-05 | < 1e-05 | < 1e-05 | < 1e-05 | < 1e-05
G13A A15C A33U G35A C58A | < 1e-05 |  |  |  | 
C16U G29A G37C | < 1e-05 |  |  | 5.01e-05 ± 1.6e-05 | 
C34G G41A | < 1e-05 | < 1e-05 | < 1e-05 | < 1e-05 | 

Variant | self-cleavage kobs at 40 uM GlcN6P [1] [s⁻¹] | self-cleavage kobs at 160 uM GlcN6P [2] [s⁻¹] | self-cleavage kobs at 640 uM GlcN6P [3] [s⁻¹] | self-cleavage kobs at 10000 uM GlcN6P [4] [s⁻¹] | self-cleavage kobs at 2500 uM GlcN6P [5] [s⁻¹]
A15G G29A | 0.000133 ± 3.8e-05 | 0.000309 ± 8.6e-05 | 0.00108 ± 0.00019 | 0.0196 ± 0.0068 | 0.00164 ± 0.00031
C8U C68A | < 1e-05 |  | < 1e-05 |  | < 1e-05
U47G G66A C70U | 0.000121 ± 3e-05 |  |  | 0.00591 ± 0.0017 | 
C50G C61A A64U | 9.82e-05 ± 1.8e-05 |  |  | 0.000113 ± 1.8e-05 | 
U45A C61A | < 1e-05 |  | < 1e-05 | < 1e-05 | < 1e-05
A6G G43A | < 1e-05 | < 1e-05 | < 1e-05 | < 1e-05 | < 1e-05
G44C C71G | < 1e-05 | < 1e-05 | < 1e-05 | < 1e-05 | < 1e-05
A42G G60U C68G | < 1e-05 |  | < 1e-05 |  | 
U57A G63U C70G | < 1e-05 |  |  |  | 
A33U C34U G60U | < 1e-05 |  |  |  | 
G51C G60U | < 1e-05 | < 1e-05 | < 1e-05 | < 1e-05 | 
U30C U45A U47C C50U G60U C68U | < 1e-05 |  |  |  | 
C61U U65A | < 1e-05 |  | < 1e-05 | < 1e-05 | 
A6U G29U G38A C58A | < 1e-05 |  |  |  | 
A42G G63A | < 1e-05 | < 1e-05 | < 1e-05 | < 1e-05 | < 1e-05
A6G A15U G59A | < 1e-05 |  |  | < 1e-05 | < 1e-05
U31C U45A G60A C67A | < 1e-05 | < 1e-05 |  |  | 
U55G U57G C67U | < 1e-05 |  |  |  | 
G32A A53U U65C | < 1e-05 | < 1e-05 | < 1e-05 |  | 
C8G C58G G60A | < 1e-05 |  |  | < 1e-05 | 
A15G U65C U69A | < 1e-05 |  |  |  | 
A33C G41A A42C G63C C67U | < 1e-05 |  |  | < 1e-05 | < 1e-05
C16A G26A C68G | 3.64e-05 ± 1.7e-05 |  |  | 3.65e-05 ± 1.5e-05 | 
C8A C50G | 5.03e-05 ± 1.7e-05 | 0.000112 ± 3.3e-05 | 0.00101 ± 0.00048 |  | 9.84e-05 ± 2.6e-05
C34U G41A C50U C68U | < 1e-05 |  |  |  | < 1e-05

Variant | self-cleavage kobs at 40 uM GlcN6P [1] [s⁻¹] | self-cleavage kobs at 160 uM GlcN6P [2] [s⁻¹] | self-cleavage kobs at 640 uM GlcN6P [3] [s⁻¹] | self-cleavage kobs at 10000 uM GlcN6P [4] [s⁻¹] | self-cleavage kobs at 2500 uM GlcN6P [5] [s⁻¹]
C16G A39G G51U U55A | < 1e-05 |  | < 1e-05 |  | 
A39C C68G | < 1e-05 |  |  | < 1e-05 | 
G32U C34A A48U C70A | < 1e-05 |  |  |  | 
A42C G60U | < 1e-05 |  |  | < 1e-05 | < 1e-05
G9U G59U | < 1e-05 | < 1e-05 |  | < 1e-05 | 
C11U A33U C61G | < 1e-05 |  |  |  | 
G7U G41U A48U | < 1e-05 |  |  |  | 
C11U A36G G38C U69C | < 1e-05 |  |  |  | 
U46G A53U U69C | 7.38e-05 ± 2.7e-05 |  |  | 0.00109 ± 0.0003 | 
C11A A48U | < 1e-05 | < 1e-05 | < 1e-05 |  | < 1e-05
G41U A42G G44A A48G | < 1e-05 |  | < 1e-05 |  | 
G7C U56G | < 1e-05 | < 1e-05 | < 1e-05 | < 1e-05 | < 1e-05
A33U U56A U65A | < 1e-05 |  |  |  | 
C11G G13A | < 1e-05 | < 1e-05 |  | < 1e-05 | 
A15G A53G | 0.00127 ± 0.00016 | 0.00183 ± 0.00039 | 0.0109 ± 0.0017 | 0.0345 ± 0.008 | 0.022 ± 0.0053
A12G C34G G38C A39C A42U G60C C71U | < 1e-05 |  |  |  | 
A33G U45C | < 1e-05 |  | < 1e-05 |  | < 1e-05
G41A U49A | < 1e-05 | < 1e-05 |  | < 1e-05 | 
G13C A48C | < 1e-05 | < 1e-05 |  | < 1e-05 | < 1e-05
A6G C67A C68U | < 1e-05 |  |  |  | 
C16U C34U | < 1e-05 | < 1e-05 |  | < 1e-05 | 
U46G G51U | < 1e-05 | < 1e-05 | < 1e-05 | < 1e-05 | < 1e-05
A6G G32U U46G | < 1e-05 |  |  | < 1e-05 | 
U47C G60U | < 1e-05 | < 1e-05 | < 1e-05 |  | < 1e-05
G9C G32C | < 1e-05 | < 1e-05 | < 1e-05 | < 1e-05 | < 1e-05

Variant | self-cleavage kobs at 40 uM GlcN6P [1] [s⁻¹] | self-cleavage kobs at 160 uM GlcN6P [2] [s⁻¹] | self-cleavage kobs at 640 uM GlcN6P [3] [s⁻¹] | self-cleavage kobs at 10000 uM GlcN6P [4] [s⁻¹] | self-cleavage kobs at 2500 uM GlcN6P [5] [s⁻¹]
G7U G38U U46G | < 1e-05 |  |  |  | 
C10A G41C | < 1e-05 | < 1e-05 | < 1e-05 | < 1e-05 | < 1e-05
C8U A33C | < 1e-05 | < 1e-05 | < 1e-05 | < 1e-05 | < 1e-05
A15C G37U G40C U55G U65C U69C | < 1e-05 |  |  |  | 
G38A U57G | < 1e-05 |  | < 1e-05 | < 1e-05 | < 1e-05
C8U G32A G41U | < 1e-05 | < 1e-05 | < 1e-05 | < 1e-05 | < 1e-05
A14G U54G G66A | 0.000476 ± 0.00011 |  |  | 0.0163 ± 0.0061 | 
G35A C70U | < 1e-05 | < 1e-05 | < 1e-05 | < 1e-05 | < 1e-05
G29C U56G C70U | 6.27e-05 ± 2.2e-05 |  |  | 0.00013 ± 3.2e-05 | 
A15U A52U G66C | < 1e-05 | < 1e-05 |  |  | 
C11G A64U C67A | < 1e-05 |  |  | < 1e-05 | 
C8A C11G | < 1e-05 | < 1e-05 | < 1e-05 | < 1e-05 | < 1e-05
G13A A53U | < 1e-05 |  | 7.57e-05 ± 2.4e-05 |  | 0.000174 ± 4.1e-05
G9A G62U | < 1e-05 | < 1e-05 |  |  | < 1e-05
A33U A52C | < 1e-05 | < 1e-05 |  | < 1e-05 | 
A12C U31A G32C C34A U47A C71U | < 1e-05 |  |  | < 1e-05 | 
A36C G41U G51A G60U | < 1e-05 |  | < 1e-05 |  | < 1e-05
G51U G62C | < 1e-05 |  | < 1e-05 | < 1e-05 | < 1e-05
C11G A15C | < 1e-05 | < 1e-05 | < 1e-05 |  | < 1e-05
C8U G29U | < 1e-05 | < 1e-05 | < 1e-05 | < 1e-05 | < 1e-05
G13A U47C C58U C71U | < 1e-05 |  |  | 6.08e-05 ± 1.3e-05 | 
G32A C61G U69C | 3.85e-05 ± 1.8e-05 |  |  | 3.49e-05 ± 1.7e-05 | 7.4e-05 ± 2.3e-05
A33C A42U C61A | < 1e-05 |  |  |  | 
